Experimental data published in article PMC4847949 (Journal of molecular biology, 2016).

B1: Lsm 169N (MBP fusion) (domain or fragment, human, UniProt P83369 1-169, looked up)
chain: MEERERGARSAGAGSPARPPSPRLDVSSDSFDPLLALYAPRLPPIPYPNAPCFNNVAEYESFLRTGVRGGGRGRGRARGAAAGSGVPAAPGPSGRTRRRPDAPAPDPERIQRLRRLMVAKEEGDGAAGAGRRGPGRSRKAPRNVLTRMPLHEGSPLGELHRCIREGVKV

Columns and labels:
MiniFLASH = biological target: T1, MiniFLASH (human, UniProt Q9UKL3 1-138; Q9UKL3 1931-1982); assay: HDX-MS
T1 sequence (looked up): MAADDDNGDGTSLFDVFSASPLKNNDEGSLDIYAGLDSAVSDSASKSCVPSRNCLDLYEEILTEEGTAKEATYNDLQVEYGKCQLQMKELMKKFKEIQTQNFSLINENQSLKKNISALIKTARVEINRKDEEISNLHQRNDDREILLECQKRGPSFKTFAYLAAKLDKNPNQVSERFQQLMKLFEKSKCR

Lsm 169N (MBP fusion) = biological target: B1; assay: HDX-MS

Binder	binding result (MiniFLASH)	binding result (Lsm 169N (MBP fusion))
B1	binds	–
FLASH 138N (domain or fragment, human, UniProt Q9UKL3 29-138, looked up) SLDIYAGLDSAVSDSASKSCVPSRNCLDLYEEILTEEGTAKEATYNDLQVEYGKAQLQMKELMKKFKEIQTQNFSLINENQSLKKNISALIKTARVEINRKDEEISNLHQ	–	binds
FLASH 159N (domain or fragment, human, UniProt Q9UKL3 1-159, looked up) MAADDDNGDGTSLFDVFSASPLKNNDEGSLDIYAGLDSAVSDSASKSCVPSRNCLDLYEEILTEEGTAKEATYNDLQVEYGKAQLQMKELMKKFKEIQTQNFSLINENQSLKKNISALIKTARVEINRKDEEISNLHQRLSEFPHFRNNHKTARTFDTV	–	binds
